Measured values from patent US11241502B2, “Stable compositions of pegylated carfilzomib compounds” (AMGEN INC., priority 2017, dated 2022).

Columns and labels:
[1] = system: human colorectal adenocarcinoma cancer cell; assay: mouse xenograft model of human colorectal adenocarcinoma; conditions: once-weekly intravenous dosing; Example 13 200 mpk or 150 rising to 250 mpk after 3 week; CFZ-captisol 5 mpk; within 19 days of the first dose
[2] = reverse phase assay of main API peak (integrity of the molecule); assay type: physicochemical
Experimental: In order to identify stable formulations of PEG-CFZ, various formulations were made wherein the desired pegylated carfilzomib compound (API) was dissolve in experimental compositions of excipients, and the stability and quantity of the intact, non-degraded API was monitored and measured in the frozen state (−20° C. or below). Formulations of API was also prepared and tested to determine the ability of each exemplary formulation to provide adequate stability in the liquid state to be suitable for clinical and commercial administration. Here, these formulations were stored at least 8 hours at room temperature and 2 days at a temperatures ranging from 2-8° C. All formulations that were tested contained desired API compounds at 1 mg/mL concentrations.
For each formulation, the stability of the API was tested using three observable and/or measurable characteristics, as follows: • 1. Integrity of the molecule, as assessed by the reverse phase assay; • 2. Clarity of the solution, via visual assessment; and • 3. Concentration of the API material in the solution, as assessed by material recovery after centrifugation Results
FIG. 2 illustrates results of similar measurements taken with the same formulations prepared with exemplary pegylated carfilzomib compound no. 39 instead of example 26. API material recovery is similarly shown in red and percent main API peak at To and T3, as measured by the same reverse phase assay, after storage at 25° C. for 3 days, is shown. Solutions for temperature and time storage conditions were generally prepared as follows—CFZ API was dissolved in formulation buffer by stirring at room temperature for a period of 5 minutes until complete dissolution. Samples were then sterile filtered using 0.2 micron PES filters under aseptic conditions into 3 cc vials, using a 1 ml fill. […]
The percent recovery of the exemplary pegylated carfilomib compounds were measured as a function of reverse phase assays for the peak(s) representing the active molecule/compound. The percent was determined based on the area under the curve, as described below. The reverse phase assays were conducted as follows—CFZ samples were analyzed by reverse phase using a Phenomenex Gemini C18, 50×4.6 mm, 3 micron particle size column with a 47 minute HPLC method. […] Main peak percentage was determined by taking Area Under the Curve integration. […] The concentration of each unknown sample was calculated using the equation of the trend-line generated from this calibration curve by plugging in the total integrated area.
For each exemplary formulation, the stability of the API was tested or measured by six different criteria or methods, as follows: • 1. Integrity of the molecule, as assessed by the reverse phase assay; • 2. […]

[3] = in humans; cited from earlier work

With “4-((4S,7S,10S,13S)-10-Benzyl-7-isobutyl-15-methyl-13-((R)-2-methyloxirane-2-carbonyl)-2,5,8,11-tetraoxo-4-phenethyl-3,6,9,12-tetraazahexadecyl)-4-(3-((1-(PEG20K-4-Arm)-1H-1,2,3-triazol-4-yl)methoxy)-4-(pivaloyloxy)benzyl)morpholin-4-ium Formate [Example 13]” the “tumor growth compared to vehicle control” value [1] was “significant attenuation of tumor growth”.

For “4-((4S,7S,10S,13S)-10-Benzyl-7-isobutyl-15-methyl-13-((R)-2-methyloxirane-2-carbonyl)-2,5,8,11-tetraoxo-4-phenethyl-3,6,9,12-tetraazahexadecyl)-4-(4-(isobutyryloxy)-3-((PEG5K-imino)methyl)benzyl)morpholin-4-ium Methanesulfonate [Example 26]”, the “main API peak loss (Table 6)” value ([2]; 5kPEG-CFZ compound example 26, 25° C. (8 h), 4° C. (in 1 week) and −70° C. (in 2 weeks)) was “minimal main API peak loss”, the “main API peak loss, 4° C. Loss per 1 week” value ([2]; A5Su formulation, API at 20 mg/mL, storage at 4° C.) was 0.0 and the “main API peak loss, 25° C. loss per 8 hr” value ([2]; A5Su formulation, API at 20 mg/mL, storage at 25° C.) was 0.0. The “main API peak loss, −70° C. loss per 2 weeks” value ([2]; A5Su formulation, API at 20 mg/mL, storage at −70° C.) was 0.0.

In the case of `CC(C)C[C@H](NC(=O)[C@H](CCc1ccccc1)NC(=O)CN1CCOCC1)C(=O)N[C@@H](Cc1ccccc1)C(=O)N[C@@H](CC(C)C)C(=O)[C@@]1(C)CO1` [Carfilzomib], the half-life in-vivo [3] is listed as ≤ 1 h.
